How the values were obtained:
[1] = molecular target: T1, CD73 protein on cancer cells (Homo sapiens, UniProt P21589); assay: Flow cytometry (FACS) with 22E6 and anti-rat-IgG fluorophore-labeled secondary mAb on human cancer cell lines; format: binding; details: approx. 30 tested human cancer cell lines, e.g. U138 MG, GBM20, MDA-MB231, T47D
T1 construct: present on the surface of human cancer cells of a total of approx. 30 tested cell lines; endogenous in cells; host or cells: about 30 human cancer cell lines, e.g. U138 MG, GBM20, MDA-MB231, T47D
T1 sequence (P21589 27-549): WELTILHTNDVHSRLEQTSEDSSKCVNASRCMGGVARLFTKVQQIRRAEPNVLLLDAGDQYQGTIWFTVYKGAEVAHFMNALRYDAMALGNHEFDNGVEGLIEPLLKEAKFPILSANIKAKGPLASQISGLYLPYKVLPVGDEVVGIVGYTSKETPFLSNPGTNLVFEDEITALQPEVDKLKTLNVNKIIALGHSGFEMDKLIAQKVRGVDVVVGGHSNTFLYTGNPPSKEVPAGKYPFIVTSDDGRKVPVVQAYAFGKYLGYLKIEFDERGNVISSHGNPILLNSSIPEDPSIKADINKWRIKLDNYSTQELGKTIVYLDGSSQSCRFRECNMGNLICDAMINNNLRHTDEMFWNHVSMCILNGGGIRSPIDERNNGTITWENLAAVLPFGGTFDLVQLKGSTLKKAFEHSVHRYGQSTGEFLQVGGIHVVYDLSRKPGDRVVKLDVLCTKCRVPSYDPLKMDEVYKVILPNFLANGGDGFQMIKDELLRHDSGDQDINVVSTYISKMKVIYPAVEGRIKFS
Method: (§1) FIG. 3: mAb 22E6 recognizes CD73 on cancer cells. […] Shown are 4 representative cell lines of a total of approx. 30 tested cell lines. U138 MG and GBM20 are glioblastoma cell lines, MDA-MB231 and T47D are human breast cancer cell lines. (B) Immunoblot with the same cell line, using a commercial CD73 mAb. […] Input=U138 lysate.
(§2) In this example, mAb 22E6 binding affinity was characterized (FIG. 3). […] Using a special flow cytometry technique, a fluorescence-activated cell sorting (FACS) with 22E6 and an anti-rat-IgG-specific, fluorophore-labeled secondary mAb, it was shown that the protein recognized by the 22E6 mAb of the invention is present on the surface of human cancer cells of a total of approx. 30 tested cell lines. U138 MG and GBM20 are glioblastoma cell lines, MDA-MB231 and T47D are human breast cancer cell lines. In order to compare the specificity of mAb 22E6 with the specificity of a commercial CD73 mAb an immunoblot with the same cell lines (U138 MG, GBM20, MDA-MB231 and T47D) was performed using the commercial CD73 mAb as shown in FIG. 3B.

CD73 protein = molecular target: T2, CD73 protein (Homo sapiens, UniProt P21589); assay: Immunoprecipitation of CD73 from U138 glioblastoma cell lysates followed by immunoblot with commercial CD73 mAb; format: binding; details: U138 glioblastoma lysate, versus isotype mAb
T2 construct: immunoprecipitation of the CD73 protein from lysates of U138 glioblastoma cells; endogenous in cells; host or cells: U138 glioblastoma cells (lysate)
T2 sequence (P21589 27-549): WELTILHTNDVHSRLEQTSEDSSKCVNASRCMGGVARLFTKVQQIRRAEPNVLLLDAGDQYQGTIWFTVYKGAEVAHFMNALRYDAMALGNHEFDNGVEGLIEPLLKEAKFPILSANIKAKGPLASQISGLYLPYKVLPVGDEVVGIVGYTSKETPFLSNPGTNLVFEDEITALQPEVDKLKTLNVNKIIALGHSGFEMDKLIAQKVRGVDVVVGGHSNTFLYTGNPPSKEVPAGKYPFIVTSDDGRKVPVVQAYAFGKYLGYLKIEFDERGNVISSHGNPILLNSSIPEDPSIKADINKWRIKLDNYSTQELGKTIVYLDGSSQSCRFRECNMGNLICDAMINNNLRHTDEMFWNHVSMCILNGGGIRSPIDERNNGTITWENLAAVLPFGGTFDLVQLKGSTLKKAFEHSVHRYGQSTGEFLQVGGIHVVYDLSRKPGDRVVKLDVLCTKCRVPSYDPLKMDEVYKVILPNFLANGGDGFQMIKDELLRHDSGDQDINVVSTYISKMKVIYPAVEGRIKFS
Method: as §1, §2

[2] = tested on: CD73-positive human A375 melanoma cells; assay: AMP to adenosine conversion by CD73-positive A375 melanoma cells; format: cell-based; details: A375 melanoma cells incubated with AMP for 60 min
Method: CD73-positive human A375 melanoma cells were incubate with AMP for 60 min and the concentration of AMP (left) and ADO (right) in the supernatant were measured. APCP is a small-molecule specific CD73 inhibitor.
(§3) Adenosine 5′-(α,β-methylene)diphosphate (APCP) is a small-molecule specific CD73 inhibitor.

human CLL cells = assay: ADO generation by human CLL cells; format: cell-based
Source text: APCP is a CD73 small molecule inhibitor.
as §3

[3] = tested on: peripheral blood mononuclear cells; assay: TNFα release in mixed lymphocyte reactions (ELISA); format: cell-based; details: 5×10^5 PBMCs each from two donors, 22E6 50 μg/ml, 37°, 24 h, versus GSF-mAb
Method: 5×10^5 peripheral blood mononuclear cells each from two out of three different donors (A, B, C) were co-incubated in standard cell culture medium at 37° for 24 h with 22E6 (50 μg/ml) or a GSF-mAb (50 μg/ml) and the amount of TNFα was measured with a commercial ELISA assay.
Accordingly, 5×10^5 peripheral blood mononuclear cells (PBMCs) each from two out of three different donors (A, B, C) were co-incubated in standard cell culture medium at 37° for 24 h with 22E6 (50 μg/ml) or a GSF-mAb (50 μg/ml) and the amount of TNFα was measured with a commercial ELISA assay.

[4] = molecular target: T3, CD73 on cancer derived EVs (Homo sapiens, UniProt P21589); assay: ADO production by EVs from malignant ascites (inorganic phosphate, malachite green assay); format: biochemical; details: phosphate-free buffer, 1 mM AMP, 60 min, versus isotype mAb
T3 construct: from tissue; host or cells: extracellular vesicles from malignant ascites (ovarian cancer patient)
T3 sequence (P21589 27-549): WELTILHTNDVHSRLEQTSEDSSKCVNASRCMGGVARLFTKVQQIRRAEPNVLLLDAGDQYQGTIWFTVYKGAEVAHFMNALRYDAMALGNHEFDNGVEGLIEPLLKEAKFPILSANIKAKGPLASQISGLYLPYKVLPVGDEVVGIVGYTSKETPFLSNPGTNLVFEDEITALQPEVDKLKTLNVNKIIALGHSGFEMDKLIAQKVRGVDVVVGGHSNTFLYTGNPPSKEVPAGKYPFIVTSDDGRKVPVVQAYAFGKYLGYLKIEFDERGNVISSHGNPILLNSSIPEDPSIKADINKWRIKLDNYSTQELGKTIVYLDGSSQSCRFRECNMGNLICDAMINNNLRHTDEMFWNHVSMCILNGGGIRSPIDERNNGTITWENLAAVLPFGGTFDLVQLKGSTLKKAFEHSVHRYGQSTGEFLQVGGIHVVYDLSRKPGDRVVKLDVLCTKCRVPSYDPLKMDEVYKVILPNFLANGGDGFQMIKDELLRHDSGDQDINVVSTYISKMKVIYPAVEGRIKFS
Method: FIG. 9: 22E6 blocks ADO production by EVs from malignant ascites. EVs were incubated in phosphate-free buffer in the presence of 1 mM AMP with APCP, 22E6 or an isotype mAb for 60 min and the concentration of inorganic phosphate (Pi; produced alongside the dephosphorylation of AMP) was quantified with a malachite green assay.
Accordingly, EVs were incubated in phosphate-free buffer in the presence of 1 mM AMP with APCP, 22E6 or an isotype mAb for 60 min and the concentration of inorganic phosphate (Pi; produced alongside the dephosphorylation of AMP) was quantified with a standard malachite green assay. Based on the above it was concluded that 22E6 inhibits CD73 on cancer derived EVs.

soluble CD73 protein = molecular target: T4, soluble CD73 protein (Homo sapiens, UniProt P21589); assay: Inhibitory preference: enzyme activity of soluble CD73; format: biochemical; details: FIG. 10
T4 sequence (P21589 27-549 limits assumed): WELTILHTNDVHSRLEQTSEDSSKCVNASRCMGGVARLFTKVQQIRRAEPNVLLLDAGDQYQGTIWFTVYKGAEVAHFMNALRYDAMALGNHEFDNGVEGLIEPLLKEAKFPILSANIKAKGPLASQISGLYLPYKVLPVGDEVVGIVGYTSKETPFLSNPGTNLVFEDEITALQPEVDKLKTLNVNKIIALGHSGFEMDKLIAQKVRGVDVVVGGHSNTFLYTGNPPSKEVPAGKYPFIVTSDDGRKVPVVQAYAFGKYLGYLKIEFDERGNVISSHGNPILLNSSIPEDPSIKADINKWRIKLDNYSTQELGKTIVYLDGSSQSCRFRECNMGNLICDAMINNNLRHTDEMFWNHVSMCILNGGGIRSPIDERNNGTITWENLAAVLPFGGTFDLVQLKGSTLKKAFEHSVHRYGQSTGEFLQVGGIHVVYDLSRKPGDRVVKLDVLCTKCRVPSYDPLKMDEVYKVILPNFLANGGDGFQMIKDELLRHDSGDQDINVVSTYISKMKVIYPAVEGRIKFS

[5] = molecular target: T5, membrane-bound form of CD73 protein (Homo sapiens, UniProt P21589); assay: Inhibitory preference: enzymatic activity of membrane-bound CD73; format: biochemical; details: FIG. 10
T5 sequence (P21589 27-549): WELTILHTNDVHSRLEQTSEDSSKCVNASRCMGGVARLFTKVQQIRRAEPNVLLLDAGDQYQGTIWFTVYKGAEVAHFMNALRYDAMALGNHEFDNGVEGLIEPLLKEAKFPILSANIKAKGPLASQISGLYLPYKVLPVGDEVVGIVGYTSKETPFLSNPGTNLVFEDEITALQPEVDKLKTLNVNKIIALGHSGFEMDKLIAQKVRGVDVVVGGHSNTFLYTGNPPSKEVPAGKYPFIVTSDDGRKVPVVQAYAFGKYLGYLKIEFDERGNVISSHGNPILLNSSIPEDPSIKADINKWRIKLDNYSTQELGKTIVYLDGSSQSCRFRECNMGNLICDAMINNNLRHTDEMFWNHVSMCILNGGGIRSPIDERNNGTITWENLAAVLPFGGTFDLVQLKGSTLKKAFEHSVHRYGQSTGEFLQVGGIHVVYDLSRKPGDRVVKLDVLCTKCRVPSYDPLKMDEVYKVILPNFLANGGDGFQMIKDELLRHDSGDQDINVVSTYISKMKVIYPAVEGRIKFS

[6] = tested on: Peripheral blood mononuclear cells (PBMCs); assay: IFN-γ release by PBMCs (ELISA); format: cell-based; details: PBMCs from two donors incubated separately; 22E6 0.5 μg/ml and 5 μg/ml; 24 h; versus isotyp antibody
Method: FIG. 15: Massive release of interferon-gamma (IFN-γ) being induced by mAB 22E6 in comparison to an isotyp antibody. IFN-γ being a marker for the activation of cytotoxic T-cells. Peripheral blood mononuclear cells (PBMCs) from two different donors were incubated separately as indicated at 37° C. for 24 h. Interferon-gamma (IFN-γ) in the supernatant was then quantified by a standard ELISA assay.
Peripheral blood mononuclear cells (PBMCs) from two different donors were incubated separately in standard cell culture medium at 37^0 for 24 h with 22E6 (0.5 μg/ml and 5 μg/ml), APCP (1 μM and 5 μM), isotyp antibody (5 μg/ml), aPD-1 (5 μg/ml) and control (5 μg/ml). The amount of interferon-gamma (IFN-γ) in the supernatant was then measured with a commercial ELISA assay.

B1: 22E6: rat monoclonal anti-CD73 antibody from immunization with GBM20 glioblastoma EVs; VH SEQ ID NO: 9, VL SEQ ID NO: 13 (antibody, listed as Rattus norvegicus, V domains shown)
VH: EVQLVESGGGLVQPGRSMKLSCAASGFTFSFYYMAWVRQAPTKGLEWVASISTGGGNTYYRDSVKGRFTISRDDAKSTLYLQMDSLRSEETATYYCARHGGDYYGYRGGYFDYWDQGVMVTVSS
VL: DIQMTQTPSSMPASLGERVTISCRASQGINNYLNWYQQKPDGTIKPLIYYTSNLQSGVPSRFSGSGSGTDYSLTISSLEPEDFAMYYCQQYDNSPYTFGAGTKLELK
modifications: (1)..(124) VH region; SITE (26)..(32) VH complementary determining region 1 (VH CDR1); SITE (52)..(57) VH complementary determining region 2 (H-CDR2); SITE (99)..(113) VH complementary determining region 3 (H-CDR3); (1)..(107) VL region; SITE (24)..(34) VL complementary determining region 1 (L-CDR1); SITE (50)..(56) VL complementary determining region 2 (L-CDR2); SITE (89)..(97) VL complementary determining region 3 (L-CDR3)
recognition of CD73 on the surface of cancer cells [1]: recognizes CD73 protein on cancer cells | specificity for CD73 by immunoprecipitation (CD73 protein): demonstrated the specificity of 22E6 | adenosine production (AMP and ADO concentration in supernatant) [2]: blocks adenosine production | ADO generation (human CLL cells): inhibits ADO generation by human CLL cells | release of TNFα [3]: increases the release of TNFα | ADO production by EVs (inorganic phosphate concentration) [4]: blocks ADO production by EVs derived from malignant ascites | effect on the enzyme activity of soluble CD73 protein (soluble CD73 protein): no or essentially no effect | inhibitory preference, membrane-bound versus soluble form of CD73 [5]: inhibitory preference for enzymatic activity of a membrane-bound form of CD73 protein | release of IFN-γ in the supernatant [6]: increases massive release of IFN-γ

Source: US11530273B2, “Anti-CD73 monoclonal antibody, encoding nucleic acids and method for producing” (HELMHOLTZ ZENTRUM MÜNCHEN—DEUTSCHES FORSCHUNGSZENTRUM FÜR …, priority 2017, dated 2022)
